Measurements: patent US20130095503A1, “SERUM SPLA2-IIA AS DIAGNOSIS MARKER FOR PROSTATE AND LUNG CANCER” (UNIVERSITY OF CINCINNATI, priority 2010, published 2013)

How the values were obtained:
[1] = system: LNCaP-AI cells; assay: MTT growth assay in LNCaP-AI cells; type: cell-based, human; conditions: 10% stripped medium, about 4 days, FIG. 11
Protocol: The role of sPLA2-IIA in the growth of prostate cancer cells was studied by MTT assay. Specifically, LNCaP-AI cells were cultured in 10% stripped medium in the presence of EGF (ng/mL) or sPLA2-IIA (ng/mL) for about 4 days, followed by performance of an MTT assay. The role of sPLA2-IIA on prostate cancer cell growth was also studied by blocking the activity of sPLA2-IIA in LNCaP-AI cells. The activity of sPLA2-IIA was blocked in LNCaP-AI cells by administering the peptide inhibitor cFLYSYR (μM) or c(NapA)R (μM) for about 4 days, followed by performance of an MTT assay.

[2] = target: T1, HER3 (Homo sapiens, UniProt P21860); assay: Western blot of P-HER3 in lung cancer cells treated with sPLA2-IIA; type: cell-based; conditions: A549 and H1975 cells (FIG. 22B: H1975), 0-0.5 μg/mL, 2 H, 10% FBS
T1 construct: endogenous in cells; host or cells: H1975 lung cancer cells
Protocol: (§1) A549 and H1975 lung cancer cells were starved in 1% stripped medium for 24 H. The cells were then treated with recombinant human sPLA2-IIA (0.5 μg/mL) with various concentrations (0, 0.125, 0.25, or 0.5 μg/mL) of sPLA2-IIA for 2 H in medium containing 10% fetal bovine serum (hereinafter “FBS”). Cell extracts were prepared and subjected to western blot analysis for HER2, P-HER2, HER3, and P-HER3. Western blot analysis was conducted as previously described.

[3] = target: T2, HER2 (Homo sapiens, UniProt P04626); assay: Western blot of P-HER2 in LNCaP-AI prostate cancer cells treated with sPLA2-IIA; type: cell-based; design: endogenous in cells; conditions: 0.5 μg/mL for 0-180 min or 0-0.5 μg/mL for 2 H, FIG. 23
Protocol: Additionally, LNCaP-AI prostate cancer cells were starved in 1% stripped medium for 24 H. The cells were then treated with recombinant human sPLA2-IIA (0.5 μg/mL) for 30 to 180 minutes (0, 30, 60, 120, or 180 min) or with various concentrations of sPLA2-IIA (0, 0.125, 0.25, or 0.5 μg/mL) for 2 H in medium containing 10% FBS. Cell extracts were prepared and subjected to western blot analysis for P-HER2 and HER2. Western blot analysis was conducted as previously described.

[4] = target: T2, HER2; assay: Western blot of P-HER2 in lung cancer cells treated with sPLA2-IIA; type: cell-based; design: endogenous in cells; host or cells: A549 lung cancer cells; conditions: A549 and H1975 cells (FIG. 22A: A549), 0-0.5 μg/mL, 2 H, 10% FBS
Protocol: as §1

T1 sequence (P21860 20-1342): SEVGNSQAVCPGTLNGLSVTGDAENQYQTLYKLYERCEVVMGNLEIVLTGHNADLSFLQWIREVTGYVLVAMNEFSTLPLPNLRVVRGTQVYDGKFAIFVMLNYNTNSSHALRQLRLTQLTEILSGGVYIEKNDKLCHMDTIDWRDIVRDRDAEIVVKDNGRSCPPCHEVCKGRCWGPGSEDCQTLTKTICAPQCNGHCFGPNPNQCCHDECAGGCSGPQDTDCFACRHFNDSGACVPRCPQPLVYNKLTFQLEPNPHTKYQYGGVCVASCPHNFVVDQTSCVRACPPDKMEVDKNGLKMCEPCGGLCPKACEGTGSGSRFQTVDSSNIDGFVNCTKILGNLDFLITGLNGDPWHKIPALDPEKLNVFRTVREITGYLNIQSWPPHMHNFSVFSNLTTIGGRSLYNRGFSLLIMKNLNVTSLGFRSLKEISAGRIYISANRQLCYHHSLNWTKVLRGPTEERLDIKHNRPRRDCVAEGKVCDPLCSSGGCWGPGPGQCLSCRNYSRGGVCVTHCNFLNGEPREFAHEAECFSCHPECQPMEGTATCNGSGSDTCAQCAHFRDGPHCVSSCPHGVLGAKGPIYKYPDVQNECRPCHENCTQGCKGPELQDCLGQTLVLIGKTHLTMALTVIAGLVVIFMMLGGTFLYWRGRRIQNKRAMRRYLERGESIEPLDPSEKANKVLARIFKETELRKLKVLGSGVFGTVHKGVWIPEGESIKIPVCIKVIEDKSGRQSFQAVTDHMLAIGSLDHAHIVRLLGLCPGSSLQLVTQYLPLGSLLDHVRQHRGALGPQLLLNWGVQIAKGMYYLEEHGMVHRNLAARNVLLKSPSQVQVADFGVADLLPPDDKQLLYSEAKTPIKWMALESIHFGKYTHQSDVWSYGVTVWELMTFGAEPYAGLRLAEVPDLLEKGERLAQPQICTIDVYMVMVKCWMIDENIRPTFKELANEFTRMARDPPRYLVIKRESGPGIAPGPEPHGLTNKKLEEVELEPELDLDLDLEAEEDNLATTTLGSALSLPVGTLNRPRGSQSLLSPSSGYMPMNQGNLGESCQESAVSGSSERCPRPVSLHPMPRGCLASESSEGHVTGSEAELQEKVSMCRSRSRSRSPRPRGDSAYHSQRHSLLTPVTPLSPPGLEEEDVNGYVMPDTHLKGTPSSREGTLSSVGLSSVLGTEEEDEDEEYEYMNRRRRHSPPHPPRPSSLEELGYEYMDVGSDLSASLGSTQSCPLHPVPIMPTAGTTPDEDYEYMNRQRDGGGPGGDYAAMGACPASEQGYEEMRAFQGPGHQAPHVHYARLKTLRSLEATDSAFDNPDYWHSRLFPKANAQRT

B1: recombinant human sPLA2-IIA: recombinant human secretory phospholipase A2-IIA (protein, UniProt P14555 21-144, looked up)
Phospholipase A2, membrane …: NLVNFHRMIKLTTGKEAALSYGFYGCHCGVGGRGSPKDATDRCCVTHDCCYKRLEKRGCGTKFLSYKFSNSGSRITCAKQDSCRSQLCECDKAAATCFARNKTTYNKKYQYYSNKHCRGSTPRC
[1]
  prostate cancer cell growth (MTT): stimulates prostate cancer cell growth
[2]
  phosphorylation of HER3: induced phosphorylation
[3]
  phosphorylation of HER2: induced phosphorylation
[4]
  phosphorylation of HER2: induced phosphorylation
